Laboratory results from the domain aggregation screens of Martell et al. (2025).

assay: soluble fraction after stress (log2 fold change); higher = more stays soluble; pooled small domains, quantitative proteomics; settings: stress: 75 degC
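Also: 20 min heating vs room temperature control held 20 min.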

Sequence | soluble fraction (log2)
HMLPLLEYLDPFTGKKTYTYLNPDTQHPIFTYYSYQDDKTGRTAYSYIDPLTGKAVNSDEPPMDILYD | -0.676
HMLPPHMEVRAIMILDKRPMALMNIEGEGDGLIVSPGYRFGDGRGRVVSITQTKVVVLWAGTSMEL | -2.82
HMLPQYELIKQYLRHQIETGEWPIGYRTPSEPKLAEQFSVSRMTARRALQELADQGLLSRTAGSGTFVAKP | -0.921
HMLPVQGEEVAPGLYKFDFPFLADKRVWEKTINAFKAEHPELKVNYIYTGPDELNSKKKTHVLVYVFTES | -0.539
HMLPVYSITEAAERLDIPASTIKWYADRFASYISPSKGKGRKRFTPEDLATLQKIHELSQDHTTEEAEAML | -0.0974
HMLPYKGTVAVSLAVLHKAVGVGTADMLKAVGTLRQGTEVTVTGRNGPFAQLKNGLWMKESFLE | -1.07
HMLQADALADPVGWALRTLGFDLEAGTPERSAIQRSFRQSLIEAHPDHGGADDEAAQRIADITEARRILLA | -0.403
HMLQFTYPRLHTKKSWYVDFMSFDPGAGKMRRKKFMLDGIPKITDRRKRAAELIEVLTKQLRAGWSPWVNV | -3.85
HMLQIADEYLDRLQALFEDVRDNHFAIGDLLVELVDMHDSRRVDVINYIAGRLAISPTTLYDYENTARR | -1.15
HMLQLDATDRALIVATQGGLPLVPRPYQVVGEQLGISGEEVVARLRALLDAGVIRRIGAVPN | -0.569
HMLQLKEPLKKVYERLTPVPKTAETILAELWEKGEYLDIAALHRALMELELSGYVRQSSPGYFGTSA | -0.553
HMLQQKESAALGERLLNQALATLKVEPDAISWDRWEALAKEYGAKSQLDILADIGLGKRLSFVVAQALTKV | -1.25
HMLRDMIIQSYRYYTDKERNPRQVWNRMEADAFWEIIRDYEGYNGDGYVHTKIIPEMEALTVIEMDN | -1.83
HMLRISLAAARVNAEMTQEDVAREMHVSKNTVVNWEKGKSEPTISQSRELSKLYNMPLEYIFYL | -2.68
HMLRKTTDLDAIRSVAKDVIDQNPKAVEDYVGGKESAIGFLLGQVMRATKGTADANTVRELLKEILDS | 1.01
HMLRPMVAILNKNISKGQVISEDYIKFEVRPERQIHGAYHDISEVLGRKTKNNIAAGTILKVRHLDT | -0.69
HMLRQVSDSNALETAVKKVLDANPEEVERYKSGNKKLISFFVGQTMKATKGAGNPKEINSILAKLL | -0.326
HMLSAEAAAARTAISTLSEDQQRVLGLSIQRGLVHEQIARATGLPLGTVKTHIRRGLIKVREALEAQAAG | 0.00212
HMLSAGETYTLGYLKASDGILFTAADGSEQTVMQRVQVRLYDNGDGTYTARLADDIAYSAVVTEDMIDK | 0.27
HMLSDAAAMESIAYEAIRQMEPDTYYIIGAGTTTRGIMEVLGLKNTLIGVDLIRNKELVANDLGGKELLSY | 0.0782
HMLSDEDMMELAIIENLQRENLNPIEEARAYESLIDKGFTHTEIADKMGKSRPYISNSIRLLSL | 0.355
HMLSDFHLNHDSIVNHTVQKKETIFSLSKKYGLSINEIIKANPGIQIDKLKRRSILIIPLRKK | -1.81
HMLSDLTPGDLVVHATHGIGRFLGIRKLELEGMTKDYITIQYRGNENLYVPVTQMDLVSRYI | -1

Sequence | soluble fraction (log2)
HMLSGGEVKRIEIATILARKSGLMIFDEPEAGIDLWSFARLVETFEDIRSNTSGSLVIISHQ | 0.0709
HMLSKEERRSQLLDLGVRLLSTRSLDELSIDLLAEEAGISRGLLYHYFGNKHDFHEAVVRRAADDLI | -2.15
HMLSLKAQVYEIIRQKILQQEYALGEKINIDTVADELKISNSPIREALMMLSQDGLIEMVPNNGARVI | -1.88
HMLSLSDIINDVMERLTREKNLTFDELLGEKRERRRIVYTFLALLELIRLKMIKAYQTAAFGVIRIFPR | -1.4
HMLSLTSRQQEIFDLIKGHIKKTGMPPTRSEIALHFGFRSANSAEEHLRALARKGFIELIPGTSRGIKLIE | -1.87
HMLSPPWYEYHRKVQAMFGRDPEVHIKDLDDLGDGKFSYMILVYNKEKAEAIKAILPQKVEMGNVTIETAI | -1.87
HMLSRNEWLVMEALWERPSTLMELVRQLGQEPPGWAKSTTATMVRRMEEKGLIRHEAGSKARVYHP | -1.82
HMLSSAAAIDRILAGGTAAMNHRQFDAALTSFNTVIEMRPDFAEGWNKRATLYYLIGEYERSIADVERTLA | 0.183
HMLSTRERMSSLMAQLQVQQFMPFHRLFTISEGRMGVIVTFLAMMELVKENLIKLIQAQEYGPIHVSLG | 0.467
HMLSVRERMSAILVSLEGERYADFTGLFDPTEGKGGVTVTFLAILELLKESMIDVVQNELYGPIHVRAA | -1.07
HMLSVRNRMSDVLKSLDDGEFHRFESLFNLEEGRLGVVVTFLAMLELAKEMLVEIVQNESLGPIYLKSR | 0.041
HMLSVRQRMGELLERLADGQFHRFESLFTVEEGKLGVVVTFLGLLTLAKEQLLDIVQEGPTAPIYVKSLA | -0.569
HMLSVTLTVLPQQAGERLDAFAAAESTLSRSAAAKLIEDGQITVNGARAAKNYRLRAGDVIEIDEPEPI | -0.0471
HMLTAPMPGTIQQILVTKGQKVRSGQTLMILEAMKMEHKIKAPNSGEIISINYSLGNRVEMGANLIEI | -2.1
HMLTDAAAVKRSVRNLVQYGFYEKPFHPEIGSGVRDLLFENMTPFVANNLSKQIEEIITNYEPRA | -0.314
HMLTDMSKIRKVLKLYGKGNSKLFISTYLSLSRNTVKKYISLFEVSGKTIEEILAKSDSELELLFSG | -0.981
HMLTEREQDTLNFIRQYIDEQGRSPLVSEIAKGLGIKSQGTTHRYIQALVDAGLLERHVGRTRGLHLT | -0.0653
HMLTGADAEKATAAAQAEFPGGTVLRVETDADGTYEAHVRKADGTEVEVKMDKDFKVTSVEE | 0.142
HMLTLAVPNSINMRLDKYLSENIDYLSRSKIQGLINDGKVTINGENEKSSYKLNGDESIVIYYEE | -0.377
HMLTPQEIGSRLKLVRQGLQLKQQEVAEIIGTSQLKISKIEQGATVTTPDFLKLLAFYSQSVSLDILF | -0.546
HMLTRQRKQLLEYLSKHTDEQMTARQIADALTAESISISAVYRNLSALEEEGILKRSIRENTREVYYQYIA | -1.57
HMLTSIDQMLKLAMPDSDITVSKMNGLILLTGTVKAPEDAAEAERLVQAFSAPPPGQPPVTVVSRLRTA | -0.402
HMLTTMSSQWKPSLDAIEILEKSGIAYSFIEDAIPEFVLYWRERGISHGAWNTKFVEHIRKQWAKFEAS | -1.73

Sequence | soluble fraction (log2)
HMLTTVAAQRAALHQEEDITKLREIILKLVPFWGLDGGAYADKETSIQLERQYRESFDQAVSAARRSGQA | -0.335
HMLTWNQLGLITKPVVFLDGTGYYARLFEAFEHMISTGFVKENYRAMMNRATSVEEAVRIASSPAPKVD | -0.0438
HMLVGGPDTPSKVTVSFDLGSRQAVDELTERAGAAGGRIGDIDDYPFMYQRQFDDPDGYHYSPFWMKP | -0.177
HMLVTQSITVPMAMSGIRLDAALAMLFPDHSRNRLKAWLDDGHILVDGAVWAGKQRLEGNEEITATLPEAK | -0.673
HMLYDNQLPDWAGQMVKNHGLTISPKALVILVDHIGNDLSRIENEIEKLMLNLGTRKSITEDDVEN | -1.61
HMLYETLKKGDQGTSVKTLQEKLKALGYLTGAADGKYGAGTETAVKSFQKAAGLTETGTADPETLSAVYAA | 0.619
HMLYITEIQKKIMDAFLVVANESNSGTRITMNEIANKVRMTPQAIYRKHFKSVIEISDTIRD | -0.551
HMMEERVIEFANVLRRNGVRVSLAENMDAFRALKSLGISDPLLFRHALRATLIKRGSDIQPFEELFDFFFL | -1.42
HMNAAFMKAERLLAILNILLTGKRVSSTELAKKLEVSVRTVYRDVEALSEAGFPVYATMGRDGGFGLIEGF | -2.09
HMNADAIIGRMGKVTEPITPDGYGRVEIDGDSWKATAVGGVAIAEGTRVSVVSLDSIIITVKTV | -1.44
HMNADAIVGRTGVVTEAIAADGFGRVQIDGDSWKAKASGNNGIDVGAKVRVLRIDSIILTVEK | -1.07
HMNAELSTVQAAEVLNVSRPFLIKLLEDGAIPHRKVGKHRRVRMEDVMSYKAAIDTEREAVLDQLAA | -0.13
HMNAISIDEAKKIALAKVSGASDQHIRIEADHDDGRLVYEGEIHYGRVEYEFEIDGSTGAIIEWDADRK | -0.286
HMNAKKSTLQLDLLKQLLEGNKISLKDFSLSNEISIRTAQRYIEDLLEIFEKNIVKEGDFYSFIS | -3.4
HMNAKNPRALAIQYVFKMQMGNFLHAKTDNQQQEQERIMTLFNEENKNTILPRWGKELLSYINRN | -0.74
HMNDENIIIEEIKYFIKSNQIKEQEKLPSERNLSELFTVSRFSLRKALRHLVDTGYLYVKDKSGYYYQGD | -2.55
HMNDLIKMPYLVGQLYDDVASNQEYADFQFKITEGNDPDKQPGEIMKQDPAADIMVKKNAEVELLVNG | 0.374
HMNDLKEDTITVQSVEYIDSDDGTMVYIKDTNHQVYKQAFKEDESLIRISAGDVLHVKYQPMDNEIHLL | -0.341
HMNDMPELLSIKEASQWATEYLNKNVTTSNIAYLIQYGRIRKIGNNGSTQVLKDDLVKYYKDQK | -0.11
HMNDMWADITINANGKATLVVHTHEIKYLGLTGHLGKMEINGTAKEPVKDSSGDVVDYYFTFTDLDASMF | 0.328
HMNDNFTPDDLNRLARIKDLPQAKKYALELISNKSAKPMKPEKVRWFANQLQKKKSVMDITKMMYDLLLA | -0.423
HMNDNTAINEFKKMVFTRMVHLQIDNAELSKLSGVTNSKILALKYGNSNTLKLGDIVKVAKTLNINLNDL | -2.86
HMNDPFVILGVSKDASQSEILEAYKQKRAYYQERVFDEGDEGAQAARMLTQLDDAYQQAMELSHES | 0.183
